# Read-outs that look alike come from different tables or passages of the source.
# Legend:
# [1] = molecular target: T1, human CD8αα homodimer, recombinant protein (Acro Biosystems) (human, UniProt P01732 22-182); assay: BLI steady state, whole hIgG1-LALAPA antibody on CD8α-His (Ni-NTA sensor), 30 °C
# T1 construct: also called CD8αα antigen; biotinylated CD8α recombinant protein (CDA-H82E3)
# Protocol: To assess affinity of whole antibodies, steady state analysis was used as the bivalent nature of both whole antibody and CD8α complicates kinetic analysis. 50 nM CD8α-His (that is, CD8α with a C-terminal oligohistidine tag; Acro) was immobilized on Ni-NTA sensor probes. Binding was analyzed with a three-fold antibody dilutions series: 60 nM, 20 nM, 6.67 nM, 2.22 nM, 0.74 nM, and 0.25 nM. The antigen-loaded sensors were incubated in the diluted solutions to capture the whole IgG antibody for 300 s to record the association phase. Sensors were incubated in the kinetic buffer for 900 s to record the dissociation phase. The spin speed was 1000 rpm for all steps except the antigen loading step which was 400 rpm to control density of the antigen. The temperature of the performed assays was at 30° C. during the association and dissociation phases. The sensor data were baseline subtracted and further analyzed in GatorOne software (version 2.10) to determine the equilibrium dissociation constants (KD) of the antibodies by fitting the signals of the steady states to the 1:1 binding model.
# [2] = molecular target: T2, human CD8 on cells (CD8-overexpressing HEK293T cells, SupT1, HPB-ALL, human T cells, transfected HEK293 of … (human, UniProt P01732 22-235)); assay: flow cytometry, Human Expanded T cells Donor 5, gated on CD4- T cells, anti-human Fc BV421
# T2 construct: whole, on cells; also called cell surface CD8
# T2 sequence (P01732 22-235): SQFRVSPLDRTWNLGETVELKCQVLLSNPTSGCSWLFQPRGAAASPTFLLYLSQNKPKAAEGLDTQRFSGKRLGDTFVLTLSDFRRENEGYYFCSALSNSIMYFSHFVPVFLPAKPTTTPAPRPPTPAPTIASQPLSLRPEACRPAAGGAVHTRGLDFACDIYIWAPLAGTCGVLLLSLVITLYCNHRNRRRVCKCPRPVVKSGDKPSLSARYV
# Protocol: (§1) Binding was measured by fluorescence from the BV421 fluorophore-conjugated anti-human Fc secondary antibody that recognize the binders. The gMFI was normalized to the gMFI of the secondary antibody in the absence of the anti-CD8α binders.
# (§2) To obtain the results shown in FIG. 8A and FIG. 8B, 5×10⁴ expanded primary T cells (human, cynomolgus macaque or rhesus monkey) were thawed and transferred to a V bottom 96-well culture plate (Corning). Cells were washed twice with Cell Staining buffer (#420201, Biolegend). Each anti-CD8α antibody was diluted in four-fold antibody titration series from 60 μg/mL to 0.057 ng/mL into Cell Staining buffer. […] Cells were then washed three times with Cell Staining buffer and primary antibody binding was detected by staining with anti-human Fc BV421 conjugate antibody (#410704, Biolegend) at 1:200 dilution for 30 minutes on ice. […] Flow cytometry data was analyzed by Flowjo 10 (Becton, Dickinson & Company) to measure the geometric median fluorescence intensity (gMFI) of the on-cell binding from each antibody. The gMFI values were normalized with the gMFI measured in the sample stained with only the secondary detection antibody and plotted against the concentration of the added antibodies. The binding curves were constructed using Graphpad Prism software, and EC₅₀ values were determined by non-linear curve fitting.
# [3] = molecular target: T2, human CD8 on cells (CD8-overexpressing …); assay: flow cytometry, Human Expanded T cells Donor 6, gated on CD4- T cells, anti-human Fc BV421
# Protocol: as §1, §2
# [4] = molecular target: T3, cynomolgus macaque CD8 on expanded primary T cells (cynomolgus macaque); assay: flow cytometry, Cyno Expanded T cells Donor 10, gated on live CD8 T cells (via CD3+CD4-)
# T3 construct: also called CD4- CD8+ cynomolgus macaque T cells
# Protocol: (§3) To obtain the results shown in FIG. 8A and FIG. 8B, 5×10⁴ expanded primary T cells (human, cynomolgus macaque or rhesus monkey) were thawed and transferred to a V bottom 96-well culture plate (Corning). Cells were washed twice with Cell Staining buffer (#420201, Biolegend). Each anti-CD8α antibody was diluted in four-fold antibody titration series from 60 μg/mL to 0.057 ng/mL into Cell Staining buffer. Cells were stained with each diluted antibody solution for 30 minutes on ice. Cells were then washed three times with Cell Staining buffer and primary antibody binding was detected by staining with anti-human Fc BV421 conjugate antibody (#410704, Biolegend) at 1:200 dilution for 30 minutes on ice. […] Flow cytometry data was analyzed by Flowjo 10 (Becton, Dickinson & Company) to measure the geometric median fluorescence intensity (gMFI) of the on-cell binding from each antibody. The gMFI values were normalized with the gMFI measured in the sample stained with only the secondary detection antibody and plotted against the concentration of the added antibodies. The binding curves were constructed using Graphpad Prism software, and EC₅₀ values were determined by non-linear curve fitting.
# [5] = molecular target: T2, human CD8 on cells (CD8-overexpressing …); assay: flow cytometry, Human Expanded T cells Donor 6, gated on live CD8 T cells (via CD3+CD4-)
# Protocol: as §3
# [6] = molecular target: T2, human CD8 on cells (CD8-overexpressing …); assay: flow cytometry, Human Expanded T cells Donor 5, gated on live CD8 T cells (via CD3+CD4-)
# Protocol: as §3
# [7] = molecular target: T3, cynomolgus macaque CD8 on expanded …; assay: flow cytometry, Cyno Expanded T cells Donor 10, gated on live CD8 T cells (via CD3+CD4-); remark: listed apart in the source
# Protocol: as §3
# [8] = molecular target: T1, human CD8αα homodimer, recombinant …; assay: BLI binding kinetic analysis, whole antibody, sample stressed at pH 8.5, 40 °C, 7 days
# [9] = molecular target: T4, rhesus macaque CD8 on expanded primary T cells (rhesus macaque); assay: flow cytometry, Rhesus Expanded T cells Donor 9, gated on live CD8 T cells (via CD3+CD4-)
# T4 construct: also called CD4- CD8+ rhesus T cells
# Protocol: as §3
# [10] = molecular target: T4, rhesus macaque CD8 on expanded primary …; assay: as above; remark: listed apart in the source
# Protocol: as §3
# [11] = molecular target: T4, rhesus macaque CD8 on expanded primary …; assay: flow cytometry, Rhesus Expanded T cells Donor 8, gated on CD4- T cells, anti-human Fc BV421
# Protocol: as §1, §2
# [12] = molecular target: T2, human CD8 on cells (CD8-overexpressing …); assay: flow cytometry, Human Expanded T cells Donor 5, gated on live CD8 T cells (via CD3+CD4-); remark: listed apart in the source
# Protocol: as §3
# [13] = molecular target: T1, human CD8αα homodimer, recombinant …; assay: BLI binding kinetic analysis, whole antibody, sample kept at pH 7.2, 4C (unstressed)
# T1 sequence (P01732 22-182 limits assumed): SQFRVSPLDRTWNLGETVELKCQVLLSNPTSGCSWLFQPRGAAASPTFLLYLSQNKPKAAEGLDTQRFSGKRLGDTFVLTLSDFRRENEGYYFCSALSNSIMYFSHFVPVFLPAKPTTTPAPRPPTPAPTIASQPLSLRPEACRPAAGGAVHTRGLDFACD
binder,measurement,setting,value
"CBD1017ch whole antibody (chimeric CT8 antibody) (antibody, V domains shown, Chimeric antibody comprising the variable regions of the donor antibody CT8; detected with anti-human Fc) VH: EVQLQQSGPELVKPGASVKISCKASRYTFTDYNLHWVKLSHEKSLEWIGFIYPYNGGTGYNQKFKNKAKLTVDYSSSTAYMELRSLTSVDAAVYYCARDHRYNEGVSFDYWGQGTTLTVSS VL: NIVLTQSPASLAVSLGQRATISCRASESVDGFGNSFMNWYQQKPGQSPKLLIYLASNLESGVPARFSGSGSRTDFTLTIDPVEADDAATYYCQQNNEDPYTFGGGTKLEIK",Kd,[1],580 pM
same,EC50 (read off the curve),[2],~0.05 µg/mL
same,EC50 (read off the curve),[3],~0.05 µg/mL
same,EC50,[4],390 pM
same,EC50,[5],0.052 µg/mL
same,EC50,[6],349 pM
same,EC50,[7],0.057 µg/mL
same,Kd,[8],550 pM
same,koff,[8],0.000795 s⁻¹
same,kon,[8],1.45e+06 M⁻¹ s⁻¹
same,EC50,[9],0.045 µg/mL
same,EC50,[10],308 pM
same,EC50 (read off the curve),[11],~0.05 µg/mL
same,EC50,[12],0.051 µg/mL
same,Kd,[13],430 pM
same,koff,[13],0.000655 s⁻¹
same,kon,[13],1.53e+06 M⁻¹ s⁻¹
"CBD1033 whole antibody, human IgG1 with Fc-silencing mutations L234A, L235A and P329A (CBD1033-hIgG1-LALAPA) (antibody, V domains shown, On tLNPs the antibody was SATA-modified or AJICAP-thiolated (CBD1033.29) and conjugated to the LNP; also called CBD1033.3; CBD1033 IgG1) VH: QVQLVQSGAEVKKPGASVKVSCKASRYTFTDYNLHWVRQAPGQGLEWMGFIYPYNGGTGYAQKFQGRVTMTVDTSTSTAYMELSSLRSEDTAVYYCARDHRYNEGVSFDYWGQGTTVTVSS VL: DIQLTQSPSSLSASVGDRATITCRASESVDGFGNSFMNWYQQKPGKAPKLLIYLASNLESGVPSRFSGSGSGTDFTLTISSVQPEDFATYYCQQNNEDPYTFGQGTKLEIKR",Kd,[1],2270 pM
same,EC50 (read off the curve),[2],~0.1 µg/mL
same,EC50 (read off the curve),[3],~0.1 µg/mL
same,EC50,[4],1160 pM
same,EC50,[5],0.112 µg/mL
same,EC50,[6],644 pM
same,EC50,[7],0.169 µg/mL
same,Kd,[8],2190 pM
same,koff,[8],0.00309 s⁻¹
same,kon,[8],1.41e+06 M⁻¹ s⁻¹
same,EC50,[9],0.145 µg/mL
same,EC50,[10],993 pM
same,EC50 (read off the curve),[11],~0.1 µg/mL
same,EC50,[12],0.094 µg/mL
same,Kd,[13],1660 pM
same,koff,[13],0.00308 s⁻¹
same,kon,[13],1.85e+06 M⁻¹ s⁻¹
